From article PMC8497785, “Structural Characterization of the RNA-Binding Protein SERBP1 Reveals Intrinsic Disorder and Atypical RNA Binding Modes”

Molecular target: T1, SERBP1 189-400 (Homo sapiens, UniProt Q8NC51 189-400)
T1 sequence: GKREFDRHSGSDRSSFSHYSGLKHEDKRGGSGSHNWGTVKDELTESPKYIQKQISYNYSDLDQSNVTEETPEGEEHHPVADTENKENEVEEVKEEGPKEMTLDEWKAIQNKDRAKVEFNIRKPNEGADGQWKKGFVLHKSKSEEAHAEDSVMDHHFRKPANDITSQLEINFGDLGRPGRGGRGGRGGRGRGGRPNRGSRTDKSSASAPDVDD
Test: NMR 1H,15N-HSQC titration; RNA:protein 2:5 to 8:5; CSPs from C-terminal RGG box to C-terminus (N383, T388, S394, A395, V398), RGG glycine broadening; 20 mM sodium phosphate pH 6.9, 60 mM NaCl, 1 mM PMSF, 0.2 mM EDTA, 10% D2O, 4 °C; 50 µM protein
Conditions: protein: recombinant; tags: N-terminal 8xHis removed by TEV (vector-derived residues may remain)

## GCGCGGG (ssRNA) [7-mer G-rich RNA (G-quartet ligand)]
  binding result: binds
